Assay results taken from US20080241155A1 (Human Genome Sciences, published 2008).

T1: Fas ligand (UniProt P48023 130-281, limits assumed)
T1 construct: Detected by immunoblotting with an antibody to FasL (Pharmingen)
T1 sequence (looked up): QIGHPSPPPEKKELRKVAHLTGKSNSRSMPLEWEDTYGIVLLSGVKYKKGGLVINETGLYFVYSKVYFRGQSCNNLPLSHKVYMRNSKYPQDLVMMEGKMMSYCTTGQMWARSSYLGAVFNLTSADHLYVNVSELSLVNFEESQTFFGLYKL


Legend:
[1] = molecular target: T2, TNFα (tumor necrosis factor alpha) (UniProt P01375 77-233, limits assumed); assay: co-precipitation from mixed conditioned media with protein G-Sepharose, immunoblot
T2 construct: also called TNF alpha
T2 sequence (P01375 77-233 limits assumed): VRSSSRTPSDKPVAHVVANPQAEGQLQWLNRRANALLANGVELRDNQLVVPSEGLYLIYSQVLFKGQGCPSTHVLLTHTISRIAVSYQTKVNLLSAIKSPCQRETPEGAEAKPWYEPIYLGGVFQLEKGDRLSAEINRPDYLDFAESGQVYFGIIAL

[2] = molecular target: T1, Fas ligand; assay: receptor-Fc / ligand co-precipitation, immunoblot
[3] = molecular target: T3, TRAIL (TNF-related apoptosis-inducing ligand), soluble (UniProt P50591 95-281, limits assumed); assay: receptor-Fc / ligand co-precipitation, immunoblot
T3 construct: also called Apo-2 ligand; Apo-2L
T3 sequence (P50591 95-281 limits assumed): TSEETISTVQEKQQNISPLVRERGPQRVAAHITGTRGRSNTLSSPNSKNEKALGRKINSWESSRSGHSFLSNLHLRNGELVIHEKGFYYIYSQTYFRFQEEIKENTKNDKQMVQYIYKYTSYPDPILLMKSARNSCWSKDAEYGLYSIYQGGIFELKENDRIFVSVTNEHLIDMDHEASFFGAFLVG

Row | Binder | binding result [1] | binding result [2] | binding result [3]
1 | DR4-Fc (soluble extracellular ligand binding domain of DR4, amino acids 110 to 239, fused to the Fc portion of human IgG) (Fc fusion, Cloned into a modified pCMV1FLAG vector for in-frame fusion with human IgG Fc and expressed in 293 cells; used as conditioned medium; also called soluble extracellular DR4-Fc fusion; Fc-extracellular domain of DR4; not shown: Fc portion of human immunoglobulin (IgG)) TIKLHDQSIGTQQWEHSPLGELCPPGSHRSERPGACNRCTEGVGYTNASNNLFACLPCTACKSDEEERSPCTTTRNTACQCKPGTFRNDNSAEMCRKCSTGCPRGMVKVKDCTPWSDIECVHKESGNGHN | no binding | no binding | 
2 | TNFR1-Fc (extracellular domain of TNFR-1 expressed as an Fc fusion) (Fc fusion, UniProt P19438 30-211, looked up, extracellular domain; not shown: Fc portion of human IgG) LVPHLGDREKRDSVCPQGKYIHPQNNSICCTKCHKGTYLYNDCPGPGQDTDCRECESGSFTASENHLRHCLSCSKCRKEMGQVEISSCTVDRDTVCGCRKNQYRHYWSENLFQCFNCSLCLNGTVHLSCQEKQNTVCTCHAGFFLRENECVSCSNCKKSLECTKLCLPQIENVKGTEDSGTT |  |  | no binding
3 | CD95-Fc (extracellular domain of CD-95 / Fas expressed as an Fc fusion) (Fc fusion, UniProt P25445 26-173, looked up, extracellular domain; also called Fas-Fc; Fc-extracellular domain of Fas; not shown: Fc portion of human IgG) QVTDINSKGLELRKTVTTVETQNLEGLHHDGQFCHKPCPPGERKARDCTVNGDEPDCVPCQEGKEYTDKAHFSSKCRRCRLCDEGHGLEVEINCTRTQNTKCRCKPNFFCNSTVCEHCDPCTKCEHGIIKECTLTSNTKCKEEGSRSN |  |  | no binding
